From article PMC2745981 come the findings set out here.

In this experiment the target is GFP-tagged GluR1 (ΔL2–3) (UniProt P19490). The experiment can be described thus: co-IP.
Sequence of UniProt P19490 (P19490 19-907, stated change not applied): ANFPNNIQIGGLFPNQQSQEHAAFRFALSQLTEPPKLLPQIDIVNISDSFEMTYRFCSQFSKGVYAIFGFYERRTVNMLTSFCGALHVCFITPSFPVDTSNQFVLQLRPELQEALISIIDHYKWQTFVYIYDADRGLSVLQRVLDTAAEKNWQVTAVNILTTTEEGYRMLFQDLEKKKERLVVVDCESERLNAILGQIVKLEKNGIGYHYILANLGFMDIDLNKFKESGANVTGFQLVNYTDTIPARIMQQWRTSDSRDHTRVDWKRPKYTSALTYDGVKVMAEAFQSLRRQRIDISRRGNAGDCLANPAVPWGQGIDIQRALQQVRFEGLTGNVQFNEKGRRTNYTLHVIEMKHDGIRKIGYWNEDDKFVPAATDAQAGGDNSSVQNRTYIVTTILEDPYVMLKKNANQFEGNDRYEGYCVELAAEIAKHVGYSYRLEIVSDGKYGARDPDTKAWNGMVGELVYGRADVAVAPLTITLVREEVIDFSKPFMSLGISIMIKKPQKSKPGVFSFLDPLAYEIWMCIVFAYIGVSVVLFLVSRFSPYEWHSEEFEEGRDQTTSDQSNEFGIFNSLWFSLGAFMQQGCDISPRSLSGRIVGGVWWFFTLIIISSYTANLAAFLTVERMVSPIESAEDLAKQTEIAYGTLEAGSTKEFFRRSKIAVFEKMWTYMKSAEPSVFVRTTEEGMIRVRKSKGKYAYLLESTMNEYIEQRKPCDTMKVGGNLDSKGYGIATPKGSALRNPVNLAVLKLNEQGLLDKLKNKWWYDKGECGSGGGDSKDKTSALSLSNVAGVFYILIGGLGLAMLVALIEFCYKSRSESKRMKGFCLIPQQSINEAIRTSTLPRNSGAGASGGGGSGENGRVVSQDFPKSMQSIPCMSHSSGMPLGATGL

On to “HA-tagged p62 (from UniProt Q13501 1-440) (natural protein)”, for which the interaction, percent of control (wild-type GluR1) was 78 % of control.
